Measurements reported in US20200339670A1 (published 2020).

What was measured:
TAMRA-labelled Aβ1-42 = biological target: T1, TAMRA-labelled Aβ1-42 (UniProt P05067 672-713, TAMRA label (position not given)); assay: flow cytometry of supernatants of immunostimulated primary microglia incubated with Aβ1-42
T1 construct: domain: Aβ1-42; also called TAMRA-Aβ1-42; TAMRA-Aβ
Experimental: Supernatants containing ASC specks were subsequently incubated with Aβ₁₋₄₂ for 6 h and thereafter analyzed by flow cytometry. (b) Upper panel: Immunoprecipitation and immunoblot detection of ASC in unstimulated, immunoactivated wildtype (wt) and ASC knockout (ASC^{-/-}) macrophages. ASC monomer detection is restricted to supernatants of immunoactivated, ASC-competent wt cells and absent in unstimulated wt cells or ASC^{-/-} macrophages. Lower panel: Immunoprecipitation of ASC followed by immunoblot detection of Aβ under the same experimental conditions as described for the upper panel. ASC bound Aβ is exclusively detected in supernatants derived from immunoactivated wt macrophages but not from unstimulated wt or ASC^{-/-} cells. (c) Upper panel: Immunoprecipitation of ASC and immunoblot detection of ASC in unstimulated, immunoactivated wt and ASC^{-/-} microglia. ASC monomer detection is restricted to supernatants of immunoactivated ASC competent wt cells and absent in unstimulated wt cells or ASC^{-/-} macrophages. […] ASC bound Aβ is exclusively detected in supernatants derived from immunoactivated wt microglia but not from unstimulated wt or ASC^{-/-} cells. […] (f) Flow cytometry quantification of ASC-TAMRA-labelled […] after immunostimulation of microglia. […]

[1] = biological target: the molecule itself; assay: immunoblot for ASC over incubation time (self-association)

T1 sequence (P05067 672-713 limits assumed): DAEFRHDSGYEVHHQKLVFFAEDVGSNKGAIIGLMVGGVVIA

B1: ASC specks released by immunostimulated wild-type primary murine microglia or murine macrophages (other, UniProt Q9EPB4 1-193, looked up)
chain: MGRARDAILDALENLSGDELKKFKMKLLTVQLREGYGRIPRGALLQMDAIDLTDKLVSYYLESYGLELTMTVLRDMGLQELAEQLQTTKEESGAVAAAASVPAQSTARTGHFVDQHRQALIARVTEVDGVLDALHGSVLTEGQYQAVRAETTSQDKMRKLFSFVPSWNLTCKDSLLQALKEIHPYLVMDLEQS
notes: Endogenous protein in cell-free supernatants; aggregated (speck) form; also called Microglia released ASC specks
TAMRA-labelled Aβ1-42
  binding result: binds

B2: recombinant mutant ASC specks (recASC; K21A, K22A and K26A) in the ASC-PYD domain (other)
chain: MGRARDAILDALENLTAEELAAFKLALLSVPLREGYGRIPRGALLSMDALDLTDKLVSFYLETYGAELTANVLRDMGLQEMAGQLQAATHQGSGAAPAGIQAPPQSAAKPGLHFIDQHRAALIARVTNVEWLLDALYGKVLTDEQYQAVRAEPTNPSKMRKLFSFTPAWNWTCKDLLLQALRESQSYLVEDLERS
notes: Made and prepared as the wild-type recombinant protein; also called recASC K21A, K22A, K26A; ASC-PYD mutant; not shown: TEV protease cleavage site; mCherry; C-terminal hexa-histidine tag from pET-23a
[1]
  binding result: no binding
